Consider one protein from publication PMC12360457 (Nature, 2025).

This series concerns the molecule itself. The experiment in a line: cryo-EM structure.

B1: Hailong protein A (HalA) from Rhodobacteraceae bacterium QY30, purified as the detergent-solubilized HalA–ODA complex (natural protein)
chain: DTNAVKEPEPALPSAASRGRRTKNWWEPMFDANAPASFSVSDWNFSNNRGPRCTLFLAEKMPDATTLVVKDIDFQDCDFQGTFERKIVFKDCKFTRCDFGLSTFSRTKFSGCSFYASSFTQCTLENCEFRNCKYEKIFYSGNETQIPRTLIAEPYQFLFGACATVDSVPQGKSRFEQRARFEETRSTIARALLANLHSEGSEDTYYAAVKASTLSENRARIARALIKINSSASKGKSIISRAVSFLTGFASAISAVVGMLILLVMGSLNGWGSSISRAMLVGVVAISCVAYRYHYRFNLPPEDAMVKATEIFFLFGYTNYAKMGQEDFHLVFSNALLGLFWYAIAIPTISNRLTRARG
As for B1, the binding result is “binds”.
